Tests used:
[1] = target: human antigen (TRBV9 family beta-chain of the human T cell receptor), immobilized on AR2G sensors (human); assay: BLI, OctetRed 96, antigen immobilized on AR2G sensors, antibody in solution, 1:1 global model
[2] = target: membrane TCR belonging to the TRBV9 family on human peripheral blood T lymphocytes (human); assay: flow cytometry sorting of donor T lymphocytes with FITC-labelled MA-043 (100 ng/ml), then sequencing of TCR beta chains of the sorted cells
Sequence of membrane TCR belonging to the TRBV9 family on human peripheral blood T lymphocytes (human) (A0A0B4J1U6 22-114): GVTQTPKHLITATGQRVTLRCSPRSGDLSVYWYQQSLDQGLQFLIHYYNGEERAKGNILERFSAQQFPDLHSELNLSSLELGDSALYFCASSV

B1: monoclonal antibody MA-043 (antibody, V domains shown)
VH: QVQLVQSGPELKKPGESVKVSCKASGYTFTDYLVHWVRQAPGKGLEWMGWINTYTGTPTYADDFEGRFVFSLDTSASTANLQICSLKNEDTATYYCARSWRRGLRGIGFDYWGQGTLVTVSS
VL: DIQMTQSPYSLSASVGDRVTITCKASKSINKYLAWFQQKPGKPNKLLIYDGSTLQSGVPSRFSGSGSGTDFTLTISSLEPEDFATYYCQQHNEYPPTFGQGTKLEIKR
B1 gave a Kd [1] of under 1 pM, a koff [1] of under 1e-07 s⁻¹ and a kon [1] of 329000 M⁻¹ s⁻¹. The enrichment of the sorted library with sequences encoded by the TRBV9 gene segment [2] was 91%.
